# Measurements taken from patent US10428140B2, “Anti-EphA4 antibody” (EISAI R&D MANAGEMENT CO., LTD., priority 2015, dated 2019).
# Positions count from the first letter of the chain named.
# B1: 142 (antibody, V domains shown)
# VH: QVQLVQSGSELKKPGASVKVSCKASGYTFTDYSMHWVRQAPGQGLKWMGWINTETGEPTYADDFKGRFVFSLDTSVSTAYLQISSLKAEDTAVYYCARIPLYYYGSRYWYFDVWGQGTTVTVSS
# VL: DIQMTQSPSSLSASVGDRVTITCRASENIYRNLAWYQQKPGKAPKLLVYAATNLADGVPSRFSGSGSGTDYTLTISSLQPEDFATYYCQHFWGTPWTFGQGTKVEIK
# modifications: synthetic humanized antibody heavy chain variable region sequence; synthetic humanized antibody light chain variable region sequence
# B2: 143 (antibody, V domains shown)
# VH: B1 VH with V2I
# VL: B1 VL
# modifications: synthetic humanized antibody heavy chain variable region sequence; synthetic humanized antibody light chain variable region sequence
# B3: 152 (antibody, V domains shown)
# VH: B1 VH with K46E, D62Q, D63G, K65T
# VL: B1 VL with V48L, P80S
# modifications: synthetic humanized antibody heavy chain variable region sequence; synthetic humanized antibody light chain variable region sequence
# B4: 153 (antibody, V domains shown)
# VH: B1 VH with D62Q, D63G, K65T
# VL: B1 VL with V48L, P80S
# modifications: synthetic humanized antibody heavy chain variable region sequence; synthetic humanized antibody light chain variable region sequence
# B5: 151 (antibody, V domains shown)
# VH: B1 VH with V2I, D62Q, D63G, K65T
# VL: B1 VL with V48L, P80S
# modifications: synthetic humanized antibody heavy chain variable region sequence; synthetic humanized antibody light chain variable region sequence
# B6: 154 (antibody, V domains shown)
# VH: B1 VH with K46E
# VL: B1 VL with V48L, P80S
# modifications: synthetic humanized antibody heavy chain variable region sequence; synthetic humanized antibody light chain variable region sequence
# B7: 145 (antibody, V domains shown)
# VH: B1 VH
# VL: B1 VL with V48L, P80S
# modifications: synthetic humanized antibody heavy chain variable region sequence; synthetic humanized antibody light chain variable region sequence
# B8: 155 (antibody, V domains shown)
# VH: B1 VH with V2I
# VL: B1 VL with V48L, P80S
# modifications: synthetic humanized antibody heavy chain variable region sequence; synthetic humanized antibody light chain variable region sequence
# B9: 157 (antibody, V domains shown)
# VH: B1 VH with K46E, D62Q, D63G, K65T
# VL: B1 VL with K45Q, V48L
# modifications: synthetic humanized antibody heavy chain variable region sequence; synthetic humanized antibody light chain variable region sequence
# B10: 158 (antibody, V domains shown)
# VH: B1 VH with D62Q, D63G, K65T
# VL: B1 VL with K45Q, V48L
# modifications: synthetic humanized antibody heavy chain variable region sequence; synthetic humanized antibody light chain variable region sequence
# B11: 144 (antibody, V domains shown)
# VH: B1 VH with K46E
# VL: B1 VL with K45Q, V48L
# modifications: synthetic humanized antibody heavy chain variable region sequence; synthetic humanized antibody light chain variable region sequence
# Target: T1, human EphA7 (Homo sapiens, UniProt Q15375)
# T1 construct: a protein of the extracellular region of each human Eph receptor fused with the SEAP protein and the His tag; made in house; host or cells: Expi293F cells (culture supernatant)
# T1 sequence (Q15375 28-555 limits assumed): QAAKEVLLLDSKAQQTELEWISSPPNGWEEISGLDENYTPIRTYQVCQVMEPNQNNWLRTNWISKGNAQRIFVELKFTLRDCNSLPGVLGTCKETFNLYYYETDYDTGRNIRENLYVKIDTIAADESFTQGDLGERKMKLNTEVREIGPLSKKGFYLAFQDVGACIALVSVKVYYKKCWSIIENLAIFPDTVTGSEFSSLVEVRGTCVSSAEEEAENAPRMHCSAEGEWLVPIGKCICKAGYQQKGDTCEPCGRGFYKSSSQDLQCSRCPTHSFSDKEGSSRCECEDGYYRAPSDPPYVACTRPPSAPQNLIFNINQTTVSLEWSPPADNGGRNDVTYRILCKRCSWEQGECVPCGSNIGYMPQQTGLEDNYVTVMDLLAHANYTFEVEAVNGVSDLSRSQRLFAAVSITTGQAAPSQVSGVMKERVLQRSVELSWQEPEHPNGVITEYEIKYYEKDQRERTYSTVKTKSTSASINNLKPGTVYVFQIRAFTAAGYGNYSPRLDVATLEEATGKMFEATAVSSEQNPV
# Assay: Selectivity ELISA of humanized antibodies for human Eph receptor
# Type: binding
# Conditions: coated protein 1 nM
# How it was run: (§1)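 Extracellular domains of human Eph receptors fused to SEAP-His were expressed in Expi293F cells for 5 days and captured from supernatant (1 nM final) on anti-His-coated plates. Humanized anti-EphA4 antibodies were incubated 1 h at room temperature, then HRP anti-IgG secondary, TMB substrate, and absorbance at 450 nm.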
row,Molecule,"hEphA7-SEAP-: absorbance at 450 nm, percentage with respect to hEphA4-SEAP-His as 100% [%]"
1,B1,5.5
2,B2,5.8
3,B3,5.7
4,B4,6.2
5,B5,6.8
6,B6,6.3
7,B7,6.3
8,B8,5.6
9,B9,6.0
10,B10,6.3
11,B11,5.6

# Target: T2, human EphB1 (Homo sapiens, UniProt P54762)
# T2 construct: a protein of the extracellular region of each human Eph receptor fused with the SEAP protein and the His tag; made in house; host or cells: Expi293F cells (culture supernatant)
# T2 sequence (P54762 18-540 limits assumed): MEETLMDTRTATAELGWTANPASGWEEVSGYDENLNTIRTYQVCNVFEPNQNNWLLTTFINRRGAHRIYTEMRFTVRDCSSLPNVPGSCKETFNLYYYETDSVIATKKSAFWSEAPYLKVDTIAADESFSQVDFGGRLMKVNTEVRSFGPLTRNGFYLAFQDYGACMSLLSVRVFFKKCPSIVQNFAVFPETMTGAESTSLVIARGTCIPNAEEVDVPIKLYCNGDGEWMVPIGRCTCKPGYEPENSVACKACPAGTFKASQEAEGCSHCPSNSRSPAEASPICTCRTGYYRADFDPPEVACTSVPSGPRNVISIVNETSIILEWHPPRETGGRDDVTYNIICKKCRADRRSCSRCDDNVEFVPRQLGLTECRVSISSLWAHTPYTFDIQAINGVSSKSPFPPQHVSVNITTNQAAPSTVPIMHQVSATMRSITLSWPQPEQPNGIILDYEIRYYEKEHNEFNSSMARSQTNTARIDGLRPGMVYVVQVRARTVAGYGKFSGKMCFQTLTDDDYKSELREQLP
# Assay: as above
# Type: binding
# Conditions: coated protein 1 nM
# How it was run: as §1
row,Molecule,"hEphB1-SEAP-: absorbance at 450 nm, percentage with respect to hEphA4-SEAP-His as 100% [%]"
1,B1,5.6
2,B2,5.9
3,B3,5.9
4,B4,6.0
5,B5,6.8
6,B6,6.3
7,B7,6.5
8,B8,5.4
9,B9,6.1
10,B10,6.2
11,B11,5.7

# Target: T3, human EphA5 (Homo sapiens, UniProt P54756)
# T3 construct: a protein of the extracellular region of each human Eph receptor fused with the SEAP protein and the His tag; made in house; host or cells: Expi293F cells (culture supernatant)
# Assay: as above
# Type: binding
# Conditions: coated protein 1 nM
# How it was run: as §1
# T3 sequence (P54756 25-573 limits assumed): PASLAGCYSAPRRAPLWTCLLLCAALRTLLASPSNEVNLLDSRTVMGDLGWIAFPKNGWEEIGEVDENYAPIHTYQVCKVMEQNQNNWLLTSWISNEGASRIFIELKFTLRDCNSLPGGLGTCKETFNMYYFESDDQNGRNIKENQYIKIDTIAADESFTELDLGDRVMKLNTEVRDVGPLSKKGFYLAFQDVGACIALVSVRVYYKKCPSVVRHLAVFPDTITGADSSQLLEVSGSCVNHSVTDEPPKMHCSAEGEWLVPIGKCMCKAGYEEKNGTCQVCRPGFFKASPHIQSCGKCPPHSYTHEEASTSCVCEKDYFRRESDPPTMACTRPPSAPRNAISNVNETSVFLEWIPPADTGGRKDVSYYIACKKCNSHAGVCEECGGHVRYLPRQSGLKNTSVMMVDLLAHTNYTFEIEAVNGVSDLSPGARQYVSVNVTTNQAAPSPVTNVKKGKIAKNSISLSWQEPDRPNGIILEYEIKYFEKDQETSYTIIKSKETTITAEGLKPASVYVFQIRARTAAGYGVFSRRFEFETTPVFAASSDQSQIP
row,Molecule,"hEphA5-SEAP-: absorbance at 450 nm, percentage with respect to hEphA4-SEAP-His as 100% [%]"
1,B1,5.7
2,B2,6.1
3,B3,5.8
4,B4,6.1
5,B5,7.0
6,B6,6.3
7,B7,6.6
8,B8,5.6
9,B9,6.1
10,B10,6.7
11,B11,5.6

# Target: T4, human EphB2 (Homo sapiens, UniProt P29323)
# T4 construct: a protein of the extracellular region of each human Eph receptor fused with the SEAP protein and the His tag; made in house; host or cells: Expi293F cells
# T4 sequence (P29323 19-543 limits assumed): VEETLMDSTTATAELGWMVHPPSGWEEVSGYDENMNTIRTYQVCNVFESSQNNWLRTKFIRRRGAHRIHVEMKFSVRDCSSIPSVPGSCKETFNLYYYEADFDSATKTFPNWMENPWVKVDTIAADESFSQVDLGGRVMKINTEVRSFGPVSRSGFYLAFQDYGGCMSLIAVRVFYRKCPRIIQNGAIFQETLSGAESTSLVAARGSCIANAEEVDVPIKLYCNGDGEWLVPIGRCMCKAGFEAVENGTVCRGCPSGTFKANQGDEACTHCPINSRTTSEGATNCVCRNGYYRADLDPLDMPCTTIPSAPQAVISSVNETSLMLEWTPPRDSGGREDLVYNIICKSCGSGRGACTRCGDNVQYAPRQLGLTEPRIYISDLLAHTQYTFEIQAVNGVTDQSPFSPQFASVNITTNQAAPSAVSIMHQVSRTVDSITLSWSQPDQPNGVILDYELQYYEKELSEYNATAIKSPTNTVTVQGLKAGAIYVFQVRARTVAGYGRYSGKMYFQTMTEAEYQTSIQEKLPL
# Assay: as above
# Type: binding
# Conditions: coated protein 1 nM
# How it was run: as §1
row,Molecule,"hEphB2-SEAP-: absorbance at 450 nm, percentage with respect to hEphA4-SEAP-His as 100% [%]"
1,B1,5.6
2,B2,5.8
3,B3,5.8
4,B4,5.9
5,B5,7.0
6,B6,6.2
7,B7,6.7
8,B8,5.5
9,B9,6.2
10,B10,6.3
11,B11,5.7
